Test results published in PMC4874178 (Biochemistry, 2015).
Read-outs that look alike come from different tables or passages of the source.

How the values were obtained:
SEC [1] = biological target: the molecule itself; assay: SEC
SEC [2] = biological target: the molecule itself; assay: SEC; remark: listed apart in the source

B1: CstB^Rhod (isolated C-terminal rhodanese domain of CstB, residues 347-444) (domain or fragment, Staphylococcus aureus strain Newman, UniProt G5ELA4 347-444, looked up)
chain: SGISTQSVHSADMTGKEEHVLDVRNDEEWNNGHLDQAVNIPHGKLLNENIPFNKEDKIYVHCQSGVRSSIAVGILESKGFENVVNIREGYQDFPESLK
Q: How did the “stoichiometry N” value (SEC [1]) turn out when B1 was run?
A: The value was ~3.

B2: Staphylococcus aureus strain Newman CstB, wild-type, full-length (enzyme, UniProt G5ELA4 1-444, looked up)
chain: MFFKQFYDNHLSQASYLVGCQRTGEAIIIDPVRDLSKYIEVADSEGLTITQATETHIHADFASGIRDVAKRLNANIYVSGEGEDALGYKNMPSKTQFVKHGDIIQVGNVKLEVLHTPGHTPESISFLLTDLGGGSSVPMGLFSGDFIFVGDIGRPDLLEKSVQIKGSTEISAKQMYESVQNIKNLPDYVQIWPGHGAGSPCGKALGAIPISTIGYEKINNWAFNEIDETKFIESLTSNQPAPPHHFAQMKQVNQFGMNLYQSYDVYPSLDNKRVAFDLRSKEAFHGGHTKGTINIPYNKNFINQIGWYLDFEKDIDLIGDKSTVEKAKHTLQLIGFDKVAGYRLPKSGISTQSVHSADMTGKEEHVLDVRNDEEWNNGHLDQAVNIPHGKLLNENIPFNKEDKIYVHCQSGVRSSIAVGILESKGFENVVNIREGYQDFPESLK
Q: Which “stoichiometry N” value (SEC [2]) does the source give for B2 here?
A: The value was 4.

B3: C201S CstB, full-length (enzyme)
chain: MFFKQFYDNHLSQASYLVGCQRTGEAIIIDPVRDLSKYIEVADSEGLTITQATETHIHADFASGIRDVAKRLNANIYVSGEGEDALGYKNMPSKTQFVKHGDIIQVGNVKLEVLHTPGHTPESISFLLTDLGGGSSVPMGLFSGDFIFVGDIGRPDLLEKSVQIKGSTEISAKQMYESVQNIKNLPDYVQIWPGHGAGSPSGKALGAIPISTIGYEKINNWAFNEIDETKFIESLTSNQPAPPHHFAQMKQVNQFGMNLYQSYDVYPSLDNKRVAFDLRSKEAFHGGHTKGTINIPYNKNFINQIGWYLDFEKDIDLIGDKSTVEKAKHTLQLIGFDKVAGYRLPKSGISTQSVHSADMTGKEEHVLDVRNDEEWNNGHLDQAVNIPHGKLLNENIPFNKEDKIYVHCQSGVRSSIAVGILESKGFENVVNIREGYQDFPESLK
Q: B3 was tested. Which “stoichiometry N” value (SEC [1]) did it give?
A: The value was 4.
